# According to patent US20240141072A1 (published 2024):
# T1: biotinylated human DLL3 protein expressed as a human IgG1 fusion protein (human, UniProt Q9NYJ7 27-492, limits assumed, biotinylated)
# T1 sequence: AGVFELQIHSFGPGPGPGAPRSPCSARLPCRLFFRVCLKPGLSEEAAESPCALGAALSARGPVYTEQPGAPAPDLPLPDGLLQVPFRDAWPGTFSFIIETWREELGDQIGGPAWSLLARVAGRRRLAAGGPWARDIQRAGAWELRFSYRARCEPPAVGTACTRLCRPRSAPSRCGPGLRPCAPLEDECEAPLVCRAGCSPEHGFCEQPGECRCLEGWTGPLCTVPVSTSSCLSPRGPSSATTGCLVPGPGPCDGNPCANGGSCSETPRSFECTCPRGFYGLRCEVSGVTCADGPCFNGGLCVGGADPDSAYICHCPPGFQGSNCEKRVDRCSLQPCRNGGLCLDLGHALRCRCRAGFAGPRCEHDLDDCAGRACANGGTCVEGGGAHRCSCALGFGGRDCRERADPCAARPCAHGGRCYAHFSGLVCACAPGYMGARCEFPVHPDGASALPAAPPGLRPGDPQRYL
# Molecular target: T1, biotinylated human DLL3 protein …
# Assay: Octet BLI, single 50 nM
# Procedure, shortened: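 Anti-DLL3 trispecific proteins were tested directly from conditioned medium in which their concentrations were known. The tip-captured DLL3 fusion served as the immobilised partner, and binding affinity toward human DLL3 was determined from the Octet measurement.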
row,Binder,Kd
1,"3H01 anti-DLL3 trispecific protein (other, not shown: linker 1808, anti-albumin sdAb, linker 1808, anti-CD3 fragment, His6 1819) EVQLVESGGGLVQPGGSLTLSCVASGSSVKFLSMAWYRQAPGKKRELVAGISGDGSTTYIDSVKGRFTISRDNAKNSVYLQMNSLRAEDTAVYYCYAYRWTTRRTYWGQGTLVTVSS",9 nM
2,"3H09 anti-DLL3 trispecific protein (other, not shown: linker 1808, anti-albumin sdAb, linker 1808, anti-CD3 fragment, His6 1819) EVQLVESGGGLVQPGGSLTLSCAASKSSVSFLSMAWYRQAPGKKRELVAGISADGSTDYIDSVKGRFTISRDNAKNSVYLQMNSLRAEDTAVYYCYAYRWTTRATYWGQGTLVTVSS",14 nM
3,"3H03 anti-DLL3 trispecific protein (other, not shown: linker 1808, anti-albumin sdAb, linker 1808, anti-CD3 fragment, His6 1819) EVQLVESGGGLVQPGGSLTLSCAASGSSVRFLSMAWYRQAPGKKRELVAGISTDGSTDYIDSVKGRFTISRDNAKNSVYLQMNSLRAEDTAVYYCYALRWTTRYTYWGQGTLVTVSS",9.9 nM
4,"4A02 anti-DLL3 trispecific protein (other, not shown: linker 1808, anti-albumin sdAb, linker 1808, anti-CD3 fragment, His6 1819) EVQLVESGGGLVQPGGSLTLSCAASGSSVRFLSMAWYRQAPGKKRELVAGISNDGSTDYIDSVKGRFTISRDNAKNSVYLQMNSLRAEDTAVYYCYAYRWKTRYTYWGQGTLVTVSS",9 nM
5,"4A011 anti-DLL3 trispecific protein (other, not shown: linker 1808, anti-albumin sdAb, linker 1808, anti-CD3 fragment, His6 1819) EVQLVESGGGLVQPGGSLTLSCAASGSKVSFLSMAWYRQAPGKKRELVAGISADGSTTYIDSVKGRFTISRDNAKNSVYLQMNSLRAEDTAVYYCYAYRWKTRYTYWGQGTLVTVSS",5.6 nM
6,"4C05 anti-DLL3 trispecific protein (other, not shown: linker 1808, anti-albumin sdAb, linker 1808, anti-CD3 fragment, His6 1819) EVQLVESGGGLVQPGGSLTLSCAASGSSVSNLSMAWYRQAPGKKRELVAGISADGSTAYIDSVKGRFTISRDNAKNSVYLQMNSLRAEDTAVYYCYAYRWTTRRTYWGQGTLVTVSS",8.3 nM
7,"4B04 anti-DLL3 trispecific protein (other, not shown: linker 1808, anti-albumin sdAb, linker 1808, anti-CD3 fragment, His6 1819) EVQLVESGGGLVQPGGSLTLSCAASGSSVLFLSMAWYRQAPGKKRELVAGVSSDGSTDYIDSVKGRFTISRDNAKNSVYLQMNSLRAEDTAVYYCYAYRWRTRYTYWGQGTLVTVSS",12 nM
8,"4C03 anti-DLL3 trispecific protein (other, not shown: linker 1808, anti-albumin sdAb, linker 1808, anti-CD3 fragment, His6 1819) EVQLVESGGGLVQPGGSLTLSCAASGSKVSFMSMAWYRQAPGKKRELVAGISVDGSTDYIDSVKGRFTISRDNAKNSVYLQMNSLRAEDTAVYYCYAYRWRTRYTYWGQGTLVTVSS",6.6 nM
9,"4B01 anti-DLL3 trispecific protein (other, not shown: linker 1808, anti-albumin sdAb, linker 1808, anti-CD3 fragment, His6 1819) EVQLVESGGGLVQPGGSLTLSCAASGSSVKFLSMAWYRQAPGKKRELVAGISRDGSTDYIDSVKGRFTISRDNAKNSVYLQMNSLRAEDTAVYYCYAYRWTTRFTYWGQGTLVTVSS",11 nM
10,"4B02 anti-DLL3 trispecific protein (other, not shown: linker 1808, anti-albumin sdAb, linker 1808, anti-CD3 fragment, His6 1819) EVQLVESGGGLVQPGGSLTLSCAASGSRVSFLSMAWYRQAPGKKRELVAGISADGSTTYIDSVKGRFTISRDNAKNSVYLQMNSLRAEDTAVYYCYAYRWTTRFTYWGQGTLVTVSS",7.1 nM
11,"4D02 anti-DLL3 trispecific protein (other, not shown: linker 1808, anti-albumin sdAb, linker 1808, anti-CD3 fragment, His6 1819) EVQLVESGGGLVQPGGSLTLSCAASGSKVSFLSMAWYRQAPGKKRELVAGISARGSTDYIDSVKGRFTISRDNAKNSVYLQMNSLRAEDTAVYYCYAYQWTTRYTYWGQGTLVTVSS",30 nM
12,"3H07 anti-DLL3 trispecific protein (other, not shown: linker 1808, anti-albumin sdAb, linker 1808, anti-CD3 fragment, His6 1819) EVQLVESGGGLVQPGGSLTLSCAASGSRVSFLSMAWYRQAPGKKRELVAGISADGSTSYIDSVKGRFTISRDNAKNSVYLQMNSLRAEDTAVYYCYAYRWRTRYTYWGQGTLVTVSS",13 nM
13,"4C02 anti-DLL3 trispecific protein (other, not shown: linker 1808, anti-albumin sdAb, linker 1808, anti-CD3 fragment, His6 1819) EVQLVESGGGLVQPGGSLTLSCAASGSKVSFLSMAWYRQAPGKKRELVAGISADGSTTYIDSVKGRFTISRDNAKNSVYLQMNSLRAEDTAVYYCYAYRWTTRFTYWGQGTLVTVSS",6.8 nM
14,"4C01 anti-DLL3 trispecific protein (other, not shown: linker 1808, anti-albumin sdAb, linker 1808, anti-CD3 fragment, His6 1819) EVQLVESGGGLVQPGGSLTLSCAASGSSVRFLSMAWYRQAPGKKRELVAGISADGSTVYIDSVKGRFTISRDNAKNSVYLQMNSLRAEDTAVYYCYAYRWKTRYTYWGQGTLVTVSS",5.1 nM
15,"4A01 anti-DLL3 trispecific protein (other, not shown: linker 1808, anti-albumin sdAb, linker 1808, anti-CD3 fragment, His6 1819) EVQLVESGGGLVQPGGSLTLSCAASGSSVRFLSMAWYRQAPGKKRELVAGISQDGSTDYIDSVKGRFTISRDNAKNSVYLQMNSLRAEDTAVYYCYAYRWRTRYTYWGQGTLVTVSS",10 nM
16,"4C011 anti-DLL3 trispecific protein (other, not shown: linker 1808, anti-albumin sdAb, linker 1808, anti-CD3 fragment, His6 1819) EVQLVESGGGLVQPGGSLTLSCAASGSRVSFLSMAWYRQAPGKKRELVAGISADGSTVYIDSVKGRFTISRDNAKNSVYLQMNSLRAEDTAVYYCYAYRWTRRYTYWGQGTLVTVSS",6 nM

row,Binder,Kd
1,"4A07 anti-DLL3 trispecific protein (other, not shown: linker 1808, anti-albumin sdAb, linker 1808, anti-CD3 fragment, His6 1819) EVQLVESGGGLVQPGGSLTLSCAASGSKVSFLSMAWYRQAPGKKRELVAGISADGSTLYIDSVKGRFTISRDNAKNSVYLQMNSLRAEDTAVYYCYAYRWTTRYRYWGQGTLVTVSS",9.8 nM
2,"4A06 anti-DLL3 trispecific protein (other, not shown: linker 1808, anti-albumin sdAb, linker 1808, anti-CD3 fragment, His6 1819) EVQLVESGGGLVQPGGSLTLSCAASGSSVRFLSMAWYRQAPGKKRELVAGISRDGSTDYIDSVKGRFTISRDNAKNSVYLQMNSLRAEDTAVYYCYAYRWTTRRTYWGQGTLVTVSS",13 nM
3,"4B09 anti-DLL3 trispecific protein (other, not shown: linker 1808, anti-albumin sdAb, linker 1808, anti-CD3 fragment, His6 1819) EVQLVESGGGLVQPGGSLTLSCAASGSSVSFLSMAWYRQAPGKKRELVAGISADGSTDYISSVKGRFTISRDNAKNSVYLQMNSLRAEDTAVYYCYAYSWTTRYTYWGQGTLVTVSS",5.4 nM
4,"4A09 anti-DLL3 trispecific protein (other, not shown: linker 1808, anti-albumin sdAb, linker 1808, anti-CD3 fragment, His6 1819) EVQLVESGGGLVQPGGSLTLSCAASGSSVKFLSMAWYRQAPGKKRELVAGISADGSTDYIGSVKGRFTISRDNAKNSVYLQMNSLRAEDTAVYYCYAYRWTTRVTYWGQGTLVTVSS",9 nM
5,"4A08 anti-DLL3 trispecific protein (other, not shown: linker 1808, anti-albumin sdAb, linker 1808, anti-CD3 fragment, His6 1819) EVQLVESGGGLVQPGGSLTLSCAASGSSVSFLSMAWYRQAPGKKRELVAGISADGSTNYIDSVKGRFTISRDNAKNSVYLQMNSLRAEDTAVYYCYAYRWRTRYTYWGQGTLVTVSS",24 nM
6,"4B06 anti-DLL3 trispecific protein (other, not shown: linker 1808, anti-albumin sdAb, linker 1808, anti-CD3 fragment, His6 1819) EVQLVESGGGLVQPGGSLTLSCAASGSRVSFLSMAWYRQAPGKKRELVAGISADGSTDYFDSVKGRFTISRDNAKNSVYLQMNSLRAEDTAVYYCYAYRWTRRYTYWGQGTLVTVSS",16 nM
7,"4A05 anti-DLL3 trispecific protein (other, not shown: linker 1808, anti-albumin sdAb, linker 1808, anti-CD3 fragment, His6 1819) EVQLVESGGGLVQPGGSLTLSCAASGSSVSFLSLAWYRQAPGKKRELVAGISADGSTDYIDSVKGRFTISRDNAKNSVYLQMNSLRAEDTAVYYCYAYRWKTRRTYWGQGTLVTVSS",9.4 nM
8,"4C08 anti-DLL3 trispecific protein (other, not shown: linker 1808, anti-albumin sdAb, linker 1808, anti-CD3 fragment, His6 1819) EVQLVESGGGLVQPGGSLTLSCVASGSQVSFLSMAWYRQAPGKKRELVAGISADGSTDYFDSVKGRFTISRDNAKNSVYLQMNSLRAEDTAVYYCYAYRWTRRYTYWGQGTLVTVSS",16 nM
9,"4C07 anti-DLL3 trispecific protein (other, not shown: linker 1808, anti-albumin sdAb, linker 1808, anti-CD3 fragment, His6 1819) EVQLVESGGGLVQPGGSLTLSCAASGSKVSFLSMAWYRQAPGKKRELVAGISADGSKDYIDSVKGRFTISRDNAKNSVYLQMNSLRAEDTAVYYCYAYRWTTRLTYWGQGTLVTVSS",7.5 nM
10,"4A010 anti-DLL3 trispecific protein (other, not shown: linker 1808, anti-albumin sdAb, linker 1808, anti-CD3 fragment, His6 1819) EVQLVESGGGLVQPGGSLTLSCAASGSSVRFLSMAWYRQAPGKKRELVAGISADGSTVYIDSVKGRFTISRDNAKNSVYLQMNSLRAEDTAVYYCYAYRWTTRYKYWGQGTLVTVSS",2.3 nM
11,"3H010 anti-DLL3 trispecific protein (other, not shown: linker 1808, anti-albumin sdAb, linker 1808, anti-CD3 fragment, His6 1819) EVQLVESGGGLVQPGGSLTLSCAASGSSVSFLSMAWYRQAPGKKRELVAGISADGSTAYIDSVKGRFTISRDNAKNSVYLQMNSLRAEDTAVYYCYAYRWTTRRTYWGQGTLVTVSS",8.6 nM
12,"4A04 anti-DLL3 trispecific protein (other, not shown: linker 1808, anti-albumin sdAb, linker 1808, anti-CD3 fragment, His6 1819) EVQLVESGGGLVQPGGSLTLSCAASGSRVSFLSMAWYRQAPGKKRELVAGISARGSTDYIDSVKGRFTISRDNAKNSVYLQMNSLRAEDTAVYYCYAYRWSTRYTYWGQGTLVTVSS",35 nM
13,"4C010 anti-DLL3 trispecific protein (other, not shown: linker 1808, anti-albumin sdAb, linker 1808, anti-CD3 fragment, His6 1819) EVQLVESGGGLVQPGGSLTLSCAASGSKVSFMSMAWYRQAPGKKRELVAGISADGSTDYIDSVKGRFTISRDNAKNSVYLQMNSLRAEDTAVYYCYAYRWTTRLTYWGQGTLVTVSS",7 nM
14,"4B05 anti-DLL3 trispecific protein (other, not shown: linker 1808, anti-albumin sdAb, linker 1808, anti-CD3 fragment, His6 1819) EVQLVESGGGLVQPGGSLTLSCAASGSRVSFLSMAWYRQAPGKKRELVAGISADGHTDYIDSVKGRFTISRDNAKNSVYLQMNSLRAEDTAVYYCYAYRWTTRYTHWGQGTLVTVSS",18 nM
15,"4B08 anti-DLL3 trispecific protein (other, not shown: linker 1808, anti-albumin sdAb, linker 1808, anti-CD3 fragment, His6 1819) EVQLVESGGGLVQPGGSLTLSCAASGSSVSFMSMAWYRQAPGKKRELVAGISADGSTDYIASVKGRFTISRDNAKNSVYLQMNSLRAEDTAVYYCYAYRWTTRSTYWGQGTLVTVSS",10 nM
16,"4D01 anti-DLL3 trispecific protein (other, not shown: linker 1808, anti-albumin sdAb, linker 1808, anti-CD3 fragment, His6 1819) EVQLVESGGGLVQPGGSLTLSCAASGSSVRFLSMAWYRQAPGKKRELVAGISADGSTVYIDSVKGRFTISRDNAKNSVYLQMNSLRAEDTAVYYCYAYRWTTRRTYWGQGTLVTVSS",3.7 nM
